The record followed here is patent US20200024330A1.

Assay in all cases: cell-based or functional assay
The target in experiment [1] is HIV-1 Env of pseudovirus CAAN.A2 (Acute), clade B (HIV-1).
Experiment [2] deals with HIV-1 Env of pseudovirus MGRM-Chronic-B-008, clade B (HIV-1).
The target in experiment [3] is HIV-1 Env of pseudovirus APV_17, clade B (HIV-1).
The target in experiment [4] is HIV-1 Env of isolate MGRM-G-028 (clade G pseudovirus) (HIV-1).
The target of experiment [5] is HIV-1 Env of isolate MGRM-AE-002 (HIV-1).
Experiment [6] concerns the target HIV-1 92UG037 envelope glycoprotein (Env) (HIV-1).
For experiment [7], the target named is HIV-1 Env of pseudovirus APV_6, clade B (HIV-1).
Experiment [8] has as its target HIV-1 MGRM-C-004 Env (HIV-1).
Experiment [9] has as its target HIV-1 Env of isolate MGRM-D-020 (clade D) (HIV-1).
For experiment [10], the target named is HIV-1 Env of pseudovirus MGRM-Chronic-B-004, clade B (HIV-1).
Experiment [11] has as its target HIV-1 93MW959 envelope glycoprotein (Env) on pseudovirus (HIV-1).
For experiment [12], the target named is HIV-1 Env of isolate MGRM-D-028 (clade D) (HIV-1).
In experiment [13] the target is HIV-1 IAVI-C18 envelope protein (Env) on pseudovirus (HIV-1).
Experiment [14] deals with HIV-1 Env of pseudovirus MGRM-Chronic-B-001, clade B (HIV-1).
Experiment [15] addresses HIV-1 MGRM-C-025 Env (HIV-1).
Experiment [16] addresses HIV-1 92RW020 envelope glycoprotein (Env) (HIV-1).
Experiment [17] addresses aMLV envelope protein on pseudovirus.

1495_C14 (PGC14) (antibody): the IC50 (µg/ml), pseudovirus neutralization in [1], in experiment [2], in [3], in experiment [4], in experiment [5] and in experiment [6] was greater than 50 µg/mL in each case. Also, the IC50 (µg/ml), pseudovirus neutralization in experiment [7] is 23 µg/mL; in [9] it was greater than 50 µg/mL; in experiment [10] it was greater than 50 µg/mL; in experiment [11], greater than 50 µg/mL; in experiment [12] it was greater than 50 µg/mL; in [14], greater than 50 µg/mL. The substance further registered an IC50 (µg/ml), pseudovirus neutralization in experiment [16] of 46 µg/mL. The IC50 in experiment [8] and in experiment [15] was greater than 50 µg/mL each time. For the same substance, the neutralization IC50 in [13] and in experiment [17] was greater than 50 µg/mL each time.
For the substance b12 (antibody), the IC50 (µg/ml), pseudovirus neutralization in experiment [1] was greater than 50 µg/mL; in experiment [2], 2.82 µg/mL; in experiment [3], greater than 50 µg/mL; in [4] it was greater than 50 µg/mL; in experiment [5] it was 17.1 µg/mL; in experiment [6], greater than 50 µg/mL. Also, the IC50 (µg/ml), pseudovirus neutralization in [7] is greater than 50 µg/mL; in experiment [9], greater than 50 µg/mL; in experiment [10] it was 0.26 µg/mL; in [11], greater than 50 µg/mL; in experiment [12], 0.78 µg/mL; in [14], 0.75 µg/mL. Also, the IC50 (µg/ml), pseudovirus neutralization in experiment [16] was greater than 50 µg/mL. In addition, the IC50 (usually the concentration that inhibits the measured activity by half) is 5.46 µg/mL in experiment [8] and greater than 50 µg/mL in experiment [15]. Besides, the neutralization IC50 in [13] and in experiment [17] was greater than 50 µg/mL throughout.
